Where no end group is shown, it is not given here.
Biological target: Rh-(Crk-II)-Fl (mouse, UniProt Q64010 2-304, N-alpha-tetramethylrhodamine (Rh) on the N-terminal KRG peptide); Dapa(Fl) = diaminopropionic acid-fluorescein in the C-terminal peptide; K-epsilon-(Biotin) and C-terminal amide (present in the …)
Test: cell-based or functional assay

Rh-(Crk-II)-Fl, sequence (Q64010 other isoform, or with tags, fused parts or gaps limits assumed): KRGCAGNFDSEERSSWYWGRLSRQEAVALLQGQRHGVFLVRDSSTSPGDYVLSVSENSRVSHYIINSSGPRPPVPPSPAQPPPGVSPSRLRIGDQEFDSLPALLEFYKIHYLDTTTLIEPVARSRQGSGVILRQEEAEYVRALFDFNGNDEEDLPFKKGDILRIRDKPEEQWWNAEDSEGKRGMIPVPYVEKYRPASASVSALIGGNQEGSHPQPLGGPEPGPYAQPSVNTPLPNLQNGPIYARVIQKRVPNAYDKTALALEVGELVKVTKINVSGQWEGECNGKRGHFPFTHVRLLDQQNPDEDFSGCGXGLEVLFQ

reduction in the change in FRET after 60 minutes reaction with full length c-Abl, relative to the positive control: 50%
B1: PPPALPPKRRR-NH2, high affinity ligand for the N-SH3 domain of Crk (peptide)
peptide: PPPALPPKRRR-NH2
